Experimental data as given in patent US8252521B2, “Method of screening substance useful in treating disease with the use of GPR40 and phospholipase” (Eisai R&D Management Co., Ltd., priority 2005, dated 2012).

What was measured:
Type in all cases: cell-based
Settings in all cases: forskolin 0.3 μM, 24 hours with sample
[1] = target: T1, human GPR40 (Homo sapiens, UniProt O14842); experiment: PLAP reporter transcription activity in GPR40-SE302 cells
T1 construct: expressed in transfected cells; host or cells: SE302 cells (HEK293 clone carrying a CRE4-VIP promoter PLAP reporter), infected with retrovirus made from pBabeCL(GPR40)IH and selected with hygromycin
Method: (§1) The GPR40-SE302 cells and GPR43-SE302 cells constructed in Examples 6 and 7 described above were suspended in a culture medium for measurement of transcription activity (DMEM containing FBS, which was heat-treated at 65° C. for 30 min, at a final concentration of 10%) and seeded onto a 96 well plate (Becton Dickinson, Co.) at 1×10^4 cells/well. In addition, as control cells, SE302 cells expressing green fluorescent protein (GFP, Invitrogen Corporation) (referred to as “GFP-SE302 cells” hereinafter) were used. Specifically, GFP-302 cells were prepared by obtaining a virus for expressing GFP using the method shown in Example 3 and 4, and transfecting SE302 cells with the virus using the method shown in Example 6. Cells were cultured for 24 hours after seeding, and forskolin prepared at a final concentration of 0.3 μM and a sample were added. Cells were cultured for another 24 hours, and 5 μL of the cell supernatant was recovered and transferred to a polypropylene 384-well white plate (Nalge Nunc International, Co.). Then, 20 μL of the assay buffer (280 mmol/L Na2CO3—NaHCO3, 8 mmol/L MgSO4, pH 10) and 25 μL of Lumiphos530 (Lumigen, Co.) were added. Following a 2-hour reaction at room temperature, chemiluminescence in each well was measured using a Fusion plate reader (Perkin Elmer, Co.) and was defined as the transcription activity. Based on these measured levels, stimulation/inhibition of transcription activity was calculated using the equation (I) shown below and described as [% of control]. Activities of the group with a sample added were calculated using the level of a control placed on each plate. [% of control]=(X−C)/(F−C)×100 (I) wherein,
(§2) X: PLAP transcription activity in the group added with a sample,
(§3) F: Mean level of transcription activity in 2 wells of a positive control (no sample added, stimulated with forskolin), and
(§4) C: Mean level of transcription activity in 2 wells of a negative control (no sample added, not stimulated with forskolin).

[2] = tested on: GFP-SE302 cells; experiment: PLAP reporter transcription activity in GFP-SE302 control cells
Method: as §1, §2, §3, §4

[3] = target: T2, human GPR43 (Homo sapiens, UniProt O15552); experiment: PLAP reporter transcription activity in GPR43-SE302 cells
T2 construct: expressed in transfected cells; host or cells: SE302 cells (HEK293 clone carrying a CRE4-VIP promoter PLAP reporter), infected with retrovirus made from pBabeCL(GPR43)IH and selected with hygromycin
T2 sequence (O15552 1-330): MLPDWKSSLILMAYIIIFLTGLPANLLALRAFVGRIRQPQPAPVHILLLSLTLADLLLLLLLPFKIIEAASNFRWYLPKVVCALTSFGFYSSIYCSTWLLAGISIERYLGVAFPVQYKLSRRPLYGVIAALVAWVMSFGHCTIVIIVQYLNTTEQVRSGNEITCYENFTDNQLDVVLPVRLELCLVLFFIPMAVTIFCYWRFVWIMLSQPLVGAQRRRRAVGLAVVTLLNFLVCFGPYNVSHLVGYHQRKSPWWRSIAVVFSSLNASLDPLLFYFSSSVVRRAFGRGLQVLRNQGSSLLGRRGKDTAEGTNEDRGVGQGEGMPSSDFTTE
Method: as §1, §2, §3, §4

T1 sequence (O14842 whole entry): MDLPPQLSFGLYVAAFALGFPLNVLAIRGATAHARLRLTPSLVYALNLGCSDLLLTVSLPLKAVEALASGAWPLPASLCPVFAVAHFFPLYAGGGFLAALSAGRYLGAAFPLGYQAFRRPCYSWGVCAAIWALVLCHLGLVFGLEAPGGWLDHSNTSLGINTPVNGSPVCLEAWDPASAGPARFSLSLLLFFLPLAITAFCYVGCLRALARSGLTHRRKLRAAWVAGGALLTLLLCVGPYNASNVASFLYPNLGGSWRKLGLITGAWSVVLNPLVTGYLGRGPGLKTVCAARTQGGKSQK

Molecule | PLAP activity in GPR40-SE302 cells [1] | PLAP activity in GFP-SE302 cells [2] | PLAP activity in GPR43-SE302 cells [3]
porcine pancreatic sPLA2: Phospholipase A2 from porcine pancreas, Sigma; primarily Group IB secretory phospholipase A2 (Swiss Prot P00592) | concentration dependent elevation of PLAP activity | no elevation of PLAP activity | no elevation of PLAP activity
hGX-sPLA2-His: purified human C-terminal His-tagged Group X secretory phospholipase A2, expressed in Sf9 cells (protein, UniProt O15496 43-165, looked up, C-terminal His6 tag, purified human C-terminal His-tagged Group X secretory phospholipase A2, expressed in Sf9 cells) Group 10 secretory …: GILELAGTVGCVGPRTPIAYMKYGCFCGLGGHGQPRDAIDWCCHGHDCCYTRAEEAGCSPKTERYSWQCVNQSVLCGPAENKCQELLCKCDQEIANCLAQTEYNLKYLFYPQFLCEPDSPKCD | concentration dependent elevations of PLAP activity | no specific elevation of PLAP activity | 
mGX-sPLA2-His: purified mouse C-terminal His-tagged Group X secretory phospholipase A2, expressed in Sf9 cells (protein, UniProt Q9QXX3 29-151, looked up, C-terminal His6 tag, purified mouse C-terminal His-tagged Group X secretory phospholipase A2, expressed in Sf9 cells) Group 10 secretory …: GLLELAGTLDCVGPRSPMAYMNYGCYCGLGGHGEPRDAIDWCCYHHDCCYSRAQDAGCSPKLDRYPWKCMDHHILCGPAENKCQELLCRCDEELAYCLAGTEYHLKYLFFPSILCEKDSPKCN | concentration dependent elevations of PLAP activity | no specific elevation of PLAP activity | 
C-terminal FLAG tagged hGX-sPLA2: C-terminal FLAG-tagged human GX-sPLA2 (SEQ ID NO: 41), purified from silkworm pupa extract (protein, listed as Homo sapiens, C-terminal FLAG tag) MGPLPVCLPIMLLLLLPSLLLLLLLPGPGSGEASRILRVHRRGILELAGTVGCVGPRTPIAYMKYGCFCGLGGHGQPRDAIDWCCHGHDCCYTRAEEAGCSPKTERYSWQCVNQSVLCGPAENKCQELLCKCDQEIANCLAQTEYNLKYLFYPQFLCEPDSPKCDDYKDDDDK | concentration-dependent elevation of PLAP activity | no elevation of PLAP activity | no elevation of PLAP activity
C-terminal FLAG tagged mGX-sPLA2: C-terminal FLAG-tagged mouse GX-sPLA2 (SEQ ID NO: 43), purified from Sf-9 culture supernatant (protein, listed as Mus musculus, C-terminal FLAG tag) MLLLLLLLLLGPGPGFSEATRRSHVYKRGLLELAGTLDCVGPRSPMAYMNYGCYCGLGGHGEPRDAIDWCCYHHDCCYSRAQDAGCSPKLDRYPWKCMDHHILCGPAENKCQELLCRCDEELAYCLAGTEYHLKYLFFPSILCEKDSPKCNDYKDDDDK | concentration-dependent elevation of PLAP activity | no elevation of PLAP activity | no elevation of PLAP activity
